assay: yeast display, Sf9 membrane polyspecificity reagent, FACS + sequencing; frameworks hold sequencing errors
Method in brief: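 Polyreactivity labels are assigned by the sorting gate from which each nanobody was recovered. The gates were low and high (top ~1%), set on anti-HA fluorescence for expression and streptavidin fluorescence for reagent binding. Before sorting, galactose-induced (36–48 hours) yeast display cells were stained for 1 hour at 4 °C with 10% biotinylated, detergent-solubilized Sf9 membrane reagent.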

Sequence	polyreactivity (PSR sort gate)
QVQLVESGGGLVQAGGSLRLSCAASGFTFNDNDMGWYRQAPGKEWELVAAITYGGSTYYADSVKGRFTISRENAKNTVYLQMNSLKPEDTAVYYCNVEFFFWPYEYGYWGQGTQVNVSS	low polyreactivity
QDQLVESGGGLVQAGGSLRLSCAASVITFVRNAKGWYRQAPGKERELVAAMSGRGGITYYADSVKGRFTISRDNAKNTVYLQMNSLKPEDTAVYYCAASSAGSSYNYWGQGTQVTVSS	high polyreactivity
QVQLVESGGGLVQAGGSLRLSCAASGRTFARYARGWYRPAPGKERELVAAISSSGGSTYYADSVKGRFTISRDNAKNTVYLQMNSLKPEDTSVYYCVTYRNWWYDYWGQGTQVTVSS	high polyreactivity
QVQLVESGGGLVQEGGSLRLICAASGLIFPRYSMGWYRQAPGKERELVAAITRGGSTYYADSVKGRFTISRDNAMNTVYLQMNSLKQEDTAVSYCNAELPVHWSWYVYWGQGTQVTVSS	low polyreactivity
QVQLVESGGGLVQAGGSLRLSCAASGSIFQYNAMGWYRQAPGKEREFVADISYSGGTTDYADSVKGRFTISRDNAKNTVYLQMNRLKPEDTAVYYCNADLSSGYPYSYYSATEYDYWGQGSQVTVSS	low polyreactivity
QVQLVESGGGLVQAGGSLRLSCAASGSIFYKYMGWYRQAPGKERELVAAMTWSGGSTYYADSVKGRFTISRDNAKNTVYLQMNSLKPEDTAVYYCNADDRHSRVGHSWQDAQFDYWGQGTQVTVSS	high polyreactivity
QVQLVESGGGLVQAGGSLRLSCAASGGTFNSNAMGWYRQAPGKERELVAGITSGSDTSYADSVKGRFTISRDNAKNTVYLQMNSLKPEDSAVYYCATRDYPLYGYWGQGTQVTVSS	low polyreactivity
QVQLEESGGALVQAGGSLRISCAASGSTFYYNAMGWYRQAPGKERELVAVITLNGGRTSYADSVKGRFTISRDNAKNTVYLQMNSLKPEDSAVYYCAADRYRGYGYWGQGTQVTVSS	low polyreactivity
QVQLVESGGGLVQAGGSLRLSCAASGRIFFPYAMGWYRQAPGKERELVAAISTSSGRTYYADSVKGRFTISRDNAKNTVYLQMNSLKPEDTAVYYCNTRPGSYSYSYRYYYWGQGTQVTVSS	high polyreactivity
QVQLVESGGGLVQAGGSLRLICAASGGPFGYYTMGWYRQAPGKERELVAAISSGGGTDYADSVKGRFTISRDNAKNTVYLQMNSLKPEDTAVYYCNAKWLEWHYVFLPSYTMDYWGQGTQVTVSS	low polyreactivity
QVQLVESGGGLVQAGGSLRLSCAASGIIFRYYAMGWYRQAPGKEREFVAAITWRGTSTYYADSVKGRFTISRDNAKNTVYLQMNSLKPEDTAVYYCATATAFPYYGLDYWGQGNQVTVSS	high polyreactivity
QVQLVESGGGLVQAGGSLRLSCAASGFIFRRYAMGWYRQAPGKERELVAIITSGVRTYSADSVKGRFTISRDNAKNTVYLQMNSLKPEDTAVYYCAARVKDYPEYDYWGQGTQVTVSS	low polyreactivity
QVQLVESGGGLVQAGGSLRLSCAASGSIFFYAMGWYRQAPGKERELVAGITSGGSTYYADSVKGRFTISRDNAKNTVYLQMNSLKPEDTAVYYCAARRRGYKYTYNSWGQGTQVTVSS	high polyreactivity
QVQLVESGGGLVQAGGSLRLSCAASGIILVYNAMGWYRQAPGKERELVAAISSSGGTTYYADSVKGRFTISRDNAKNTVYLQMNSLKPEDTAVYYCNAALPVTRSERYGSDYWGQGTQVTVSS	low polyreactivity
QVQLGESGGGVVQAGVSLRLSCAASGSTFTLYAMGWYRQAPGKERELVAAINGAGSTYYADSVKGRFTISRDNAKNTVYLQMNSLKPEDTAVYYCAKDLKYGWSDYWGQGTQVTVSS	low polyreactivity
QVQLVESGGGLVQAGGSLRLRCAASGNTFRVYPMGWYRQAPGKESELVAAITWSGSRTYYADSVKGRFTISRDNAKNTVYFQINSLKPEDTAVYYCAARFVRAAYNYWGLGTQVTVSS	high polyreactivity
QVQLVESGGGLVQAGGSLRLSCAASGSIFYAYAMGWYTQAPGKERELVATISSVGSTYYADSVKGRFTISRDNAKNTVYLQMNSLKPEDTAVYYCAKQRIVVYKTGYDYWGQGTQVTVSS	low polyreactivity

Source: the nanobody polyreactivity screen of Harvey et al. (2022)
